± gives the uncertainty stated by the source.
Test: self-splicing fitness, log relative to wild type (ln ratio); higher = more splicing; Tetrahymena group I intron in knt gene, E. coli kanamycin selection, DiMSum; sequences stand for … in CUCUCU…GGAGGGAAAAGUUAUCAGGCAUGCACCUGGUAGCUAGUCUUUAAACCAAUAGAUUGCAUCGGUUUAAAAGGCAAGACCGUCAAAUUGCGGGAAAGGGGUCAACAGCCGUUCAGUACCAAGUCUCAGGGGAAACUUUGAGAUGGCCUUGCAAAGGGUAUGGUAAUAAGCUGACGGACAUGGUCCUAACCACGCAGCCAAGUCCUAAGUCAACAGAUCUUCUGUUGAUAUGGAUGCAGUUCACAGACUAAAUGUCGGUCGGGGAAGAUGUAUUCUUCUCAUAAGAUAUAGUCGGACCUCUCCUUAAUGGGAGCUAGCGGAUGAAGUGAUGCAACACUGGAGCCGCUGGGAACUAAUUUGUAUGCGAAAGUAUAUUGAUUAGUUUUGGAGUACUCGUGGUCG
Outline: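 Six replicate transformations of E. coli BL21(DE3) with a pET-22b(+) library were grown overnight at 37°C or 30°C. The library randomised all eight P1ex-region intron nucleotides, the intron lying in the knt kanamycin-resistance gene, and plates were LB agar with or without 25 μg/mL kanamycin plus 100 μg/mL carbenicillin, 50 μM IPTG and 0.2% rhamnose. Pooled colonies were amplicon-sequenced on an Illumina HiSeq 2500, and fitness is the DiMSum error-weighted combination of wild-type-normalised replicate fold changes, kanamycin versus none.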

| Sequence | self-splicing fitness (ln) (30 °C) | self-splicing fitness (ln) (37 °C) |
| --- | --- | --- |
| GUCAAGCAAUAUUACGGUCC | -2.23 ± 0.27 | -1.09 ± 0.25 |
| CACAAGCAAUAUUACGAUUA | -2.43 ± 0.13 | -0.984 ± 0.12 |
| AGCAAGCAAUAUUACGGCCA | -0.0326 ± 0.088 | -0.0437 ± 0.12 |
| UGGUAGCAAUAUUACGGCAC | – | -1.39 ± 0.44 |
| UCUCAGCAAUAUUACGUCAC | -3.75 ± 0.19 | -2.55 ± 0.17 |
| GUCGAGCAAUAUUACGAUUG | -4.1 ± 0.33 | -3.26 ± 0.26 |
| UGCUAGCAAUAUUACGCAGC | -4.35 ± 0.36 | -2.1 ± 0.28 |
| CAACAGCAAUAUUACGCCCC | – | -0.283 ± 0.4 |
| AUGAAGCAAUAUUACGGCAG | 0.378 ± 0.086 | -0.115 ± 0.1 |
| UAUCAGCAAUAUUACGCUUC | -2.82 ± 0.23 | -2.09 ± 0.27 |
| AACGAGCAAUAUUACGCGCA | -1.28 ± 0.094 | -2.1 ± 0.12 |
| CACAAGCAAUAUUACGGGGU | -3.61 ± 0.11 | -3.18 ± 0.13 |
| GAUAAGCAAUAUUACGUGGU | -4.24 ± 0.19 | -2.35 ± 0.15 |
| AUGUAGCAAUAUUACGGCGC | -0.704 ± 0.094 | -0.408 ± 0.12 |
| AUUCAGCAAUAUUACGUUAC | -2.76 ± 0.17 | -1.2 ± 0.12 |
| GUGAAGCAAUAUUACGCACU | -3.68 ± 0.47 | -2.19 ± 0.29 |
| CUCUAGCAAUAUUACGUACA | -3.04 ± 0.38 | -1.89 ± 0.24 |
| GCUAAGCAAUAUUACGUAUC | -0.952 ± 0.082 | -0.277 ± 0.1 |
| CGGAAGCAAUAUUACGAUCG | -1.86 ± 0.1 | -1.07 ± 0.14 |
| GCAGAGCAAUAUUACGCACU | – | -3.43 ± 0.43 |

| Sequence | self-splicing fitness (ln) (30 °C) | self-splicing fitness (ln) (37 °C) |
| --- | --- | --- |
| AUACAGCAAUAUUACGCUGG | -2.29 ± 0.13 | -2.76 ± 0.25 |
| GCCAAGCAAUAUUACGGACU | -1.16 ± 0.077 | -0.389 ± 0.1 |
| CCACAGCAAUAUUACGGCCU | -3.94 ± 0.24 | -3.38 ± 0.31 |
| CACCAGCAAUAUUACGUUCU | -3.76 ± 0.17 | -2.65 ± 0.14 |
| UUCAAGCAAUAUUACGCCUC | -1.59 ± 0.14 | -1.34 ± 0.16 |
| ACAUAGCAAUAUUACGCUAG | -2 ± 0.11 | -0.855 ± 0.13 |
| CAAUAGCAAUAUUACGAUAC | -3.17 ± 0.19 | -2.41 ± 0.16 |
| AAUAAGCAAUAUUACGCCUC | -2.43 ± 0.35 | -1.19 ± 0.31 |
| CCAUAGCAAUAUUACGACUA | – | -1.71 ± 0.37 |
| GAGUAGCAAUAUUACGUAAU | -2.16 ± 0.13 | -2.38 ± 0.16 |
| CUAUAGCAAUAUUACGUUUC | -3.68 ± 0.23 | -2.86 ± 0.31 |
| CGUCAGCAAUAUUACGCCCA | -0.52 ± 0.12 | -0.0594 ± 0.14 |
| CUCUAGCAAUAUUACGUCCU | -2.87 ± 0.39 | – |
| CAUAAGCAAUAUUACGCUGG | -2.08 ± 0.18 | -2.03 ± 0.17 |
| GGCUAGCAAUAUUACGCCGA | -1.8 ± 0.28 | -1.05 ± 0.25 |
| CAGUAGCAAUAUUACGUCAU | -3.37 ± 0.22 | -2.4 ± 0.26 |
| UGCAAGCAAUAUUACGUCGG | -2.03 ± 0.086 | -0.943 ± 0.1 |
| CACGAGCAAUAUUACGGCCU | -4.34 ± 0.36 | -3.06 ± 0.3 |
| CAUGAGCAAUAUUACGCGUA | -2.65 ± 0.24 | -2.45 ± 0.25 |
